Measured values from the nanobody polyreactivity screen of Harvey et al. (2022).

Assay: yeast display, Sf9 membrane polyspecificity reagent, FACS + sequencing; frameworks hold sequencing errors
How it was run: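 Using colony PCR, genes from sorted yeast display clones were amplified, then sequenced on MiSeq at 2 × 250 and filtered by CDR length. The clones had been stained with 10% biotinylated, detergent-solubilized Sf9 membrane reagent for 1 hour at 4 °C and sorted by FACS into low and high (top ~1%) gates on anti-HA and streptavidin fluorescence. Polyreactivity labels come from the gate of origin.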

Sequence | polyreactivity (PSR sort gate)
QVQLVESGGGLVQAGGILRISSDSSGSIFTFYAMGCYRQEPGKERELFAAISYGGGITYYADSVKGRFSISRDNAKNTVYLQMNSLKPEDTAVFYCAGDDGYYNLYFDYDYWGQGTQVTVSS | low polyreactivity
QVQLVESGGGLVQAGGILRLICAASGFIFLGYALGWYRQAPGTERELVAAISSDSDKNYADSVKGRFTISRDNAKNTVYLQMNILKPEDTAVYYCIADIDSYREMDYWGQGTQVTVSS | low polyreactivity
QVQLVESGGGLVQAGGILRLRCAASGLTFVYYAMGWYRQAPGKERELVAGITSRGGRTYYADSVKGRFTISRDNAKNTVYLQMNSLKPEDTAGYYCNAVDRYNRFDYWGQGTQVTVSS | high polyreactivity
QVQLVESGGGLVQAGGILRLSCAARTFVNYDMGWTRQAHGKERELVAAISSSGGSTNYADSVKGRFTISRDNAKNTVYLQMKSLKPEDTAVYYCAAASRRQVIPAMYYWGQGTQVTVSS | high polyreactivity
QVQLVESGGGLVQAGGILRLSCAASGFIFTYYAKGWYRQAPGKEMELVAAISWSGGSTYYADSVKGRFTISRDNAKNTVYLLMNSLKPEDTAVYYCAVDLHYSRGPRDAQYRYYYWGHGTQVTVSS | high polyreactivity
QVQLVESGGGLVQAGGILRLSCAASGFILWYYTMGWSRQAPGKERELVAAISRGGTTYYADSVKGRFTISRDTAKNTVYLQMYSLKPEDTAVYYCNAPYNTHGIVLYDYWGQGTQVTVSS | low polyreactivity
QVQLVESGGGLVQAGGILRLSCAASGFTIYYYAIGWYRQAPGKERELVASITSGGSTYYADSVKGRFTISRDNAKNSVYLQMNSLKPEDTAVYYCAKTRFHYKEGDYWGQGTQVTVSS | low polyreactivity
QVQLVESGGGLVQAGGILRLSCAASGGIIAINAMGWYRQAPGKERELVAAISWGDGITYYADSVKGRFTISRDNEKNTVYLQMNSLKPEDTAVYYCAADEDEYRGGDESWGQGTQVTVSS | low polyreactivity
QVQLVESGGGLVQAGGILRLSCAASGGTFTYNAMGWYRQAPGKERELVAAITNGGGSTYYADSVKGRFTISRDNAKNTVYLQMNSLKPEDTAVYYCAARWWYYYTEYDYWGQGTQVTVSS | low polyreactivity
QVQLVESGGGLVQAGGILRLSCAASGILVYNAMGWYIQAPGTERVLVAAISARGGRTYYADSVKGRFTISRDNAKNTVNLQMNSLKPEDTPVYYCATLETTGVNYWGQGTQVTVSS | high polyreactivity
QVQLVESGGGLVQAGGILRLSCAASGITFPANAMGWYRQAPGKQRELVAAISSYGGSTYYADSVKGRFTISRDNAKNNVYFQMNSLKPEDTAVYYCAAYLSSLGRKYYYWGQGTQVTVSS | high polyreactivity
QVQLVESGGGLVQAGGILRLSCAASGRIFFPNAMGWFRQAPGKERELVASISRGTSTNYADSVKGRVTISRDNAKNTVYLQMHSLKPEDTAVYYCAAKSAPYFGGRSRYAYWGQGTQVTVSS | low polyreactivity
QVQLVESGGGLVQAGGILRLSCAASGRIFGGNAMGWYRQSPGKEREFVAAITWRGGTTYYADSVKGRFTISRDNAKNTVYLQMNSLKPEDTAVYYCNAMPYTRNTGYDYWGQGTQVTVSS | high polyreactivity
QVQLVESGGGLVQAGGILRLSCAASGRIFSRYAMGWYRQAPGKERELVAAISSSGTTTYYADSVKARFTISRDNAKNTVYLQMNSLKPEDTAVYYCAVEDRWYGPGYEYWGQGTQVTVSS | high polyreactivity
QVQLVESGGGLVQAGGILRLSCAASGRIFYGYAMGWYRQAPGKERELVAAISSDGRTYYADSVKGRFTISRDNAKNTVYLQLNSLKPEDTAVYYCAKVPYSGYDYVYWDPSIFEYDYWGQGTQVTVSS | low polyreactivity
QVQLVESGGGLVQAGGILRLSCAASGRILTTNAMGWYRQAPGKERELVAAITRSGGRTYYADSVKGRFTISRDNAKNTVYFQMNSLKPEDTAVYYCNAVTTRLSLYDYWGQGTQVTVSS | high polyreactivity
QVQLVESGGGLVQAGGILRLSCAASGRTFERNAMGWYRQSPGKEREFVAAITEIGGSTYYADSVKGRFTISRDNAKNTVYLQMNSLKPEDTAVYYCAKDGTYSPYDYWGQGTQVTVSS | low polyreactivity
QVQLVESGGGLVQAGGILRLSCAASGSIFAYYAMGWYRQAPGKERELVAAIDSGGGTSYADSVKGRFTISRDNAKNTVYLQMNRLKPEDTAVYYCNAAGYVVYYRIIAFGYWGQGTQVTVSS | low polyreactivity
QVQLVESGGGLVQAGGILRLSCAASGSIFPGYAMGWYRQAPGKERELVAAISTSGGSTYADSVKGRFTISRDNAKNTVYLQMNSLKPEDTAVYYCAATYTYTSPVYYSLDGPWPYDYWGQGTQVTVSS | low polyreactivity
QVQLVESGGGLVQAGGILRLSCAASGSIFPYYAMGWYRQAPGKERELVAGITSGTRTNYADSVKGRFTISRDNAKNTVYLQMNSLKPEDTAVYYCAKEAHIWGYPDYEYWGQGSQVTVSS | high polyreactivity
QVQLVESGGGLVQAGGILRLSCAASGSIFQRYVMGWYRQAPGKAREFVAGITRSGGSTYYADSVKGRFTISRDNAKNTVYLPMNSQKPEDTAVYNCAAALVRGTYKYDYWGQGTQVTFSS | high polyreactivity
QVQLVESGGGLVQAGGILRLSCAASGSNFRRNVMWYRQEPGKERELVAGISWRGTSTYYADSVNGRFTISRDNAKNTVYLQMNRLKPEDSAVYYCAALPFVYHRVNEFDYWGQGTQVTVSS | high polyreactivity

Sequence | polyreactivity (PSR sort gate)
QVQLVESGGGLVQAGGILRLSCAASGSTFGENAMGWYRQSPGKERELVAAISRASSTDYADSVKGRFTISRDNAKNTVYLQMNSLKPEDTAVYYCAVSIFGSFNYDFYSWGQGTQVTVSS | low polyreactivity
QVQLVESGGGLVQAGGILRLSCAASGSTFTYNVMGWYRQAPGKERYLVAAISWSGGSTFYADSVKGRFTISRDNAKNTVYLQMNRLKPEDTAVYYCNKDHLVYPSEFYYWGQGTQVTVSS | low polyreactivity
QVQLVESGGGLVQAGGILRLSCAASGSTLRTNAMGWYRQEPGKDRELVAAISTRGSSTYYADSVKGRFTISRDNAKNTVYLQMNSLQPEDTAVYYCNTAWGPRRGVNVAFDYWGQGTHVTVSS | low polyreactivity
QVQLVESGGGLVQAGGILRLSCAAYGFTFYSYSMGWYRQAPGKEREFVAAGSTYYADSVKGRFTISRDNAKNTVYLQMNSLKPEDTAVYYCAADPWIYVQSYGFWGQGTQVTVSS | low polyreactivity
QVQLVESGGGLVQAGGILRLSCAAYGRTFSRYGMGWYRHAPGKERQLVADITWRGDSTYYADSVKGRFTISRDNAKNTVYLQMNSLKPEDTAVYYCAVYWRSLYYGYTYDYWGQGTQVTLSS | high polyreactivity
QVQLVESGGGLVQAGGILRLSCASSGSIFGYYAMGWYRQAPGKERELVAAIDSGGGSTYYADSVKERFTISRDNAKNTVYFQMNSLKPEDTAVYYCAAVSYSYPSLLYEYWGQGTQVTVSS | low polyreactivity
QVQLVESGGGLVQAGGILRLSCASSGSIFVTFAMGWYRQAPGTEREFVAAINWIGGSTYYADSVKGRFTISRDNAKNTVYLQMNSLKPEDTAVYDCGKRYYRRYDYWGQGTQVTVSS | high polyreactivity
QVQLVESGGGLVQAGGILRLSCASSRFTFTWYAMGWYRPAPGKERELVAAISLSGDRTYYADSVKGRFTISRDNAKNTVYLQMNSLKPEDTAVYYCVFAFEYYYWGQGTQVTVSS | low polyreactivity
QVQLVESGGGLVQAGGILRLSCDASGRIFRANAMGWYRQAPGKERELVASITYSGGSTYYADSVKGRFTISRDNAKNTVYLPMNSLNPEDTAVYYCARAGISSGGYYYWGQGTQVTVSS | low polyreactivity
QVQLVESGGGLVQAGGILRLSCTASGFTLGHYAMGWYRQSPGKERELVAVITSGSSTNYADSVKGRFTISRDNAKNTVYLQMNSLKPEDTAVYYCAAEDQFFKWLYYFWGEGTQVTVSS | low polyreactivity
QVQLVESGGGLVQAGGILRLSSAASGLILPDYAMGWYRQAPGKERELVAAISEYAGSTYYADSVKGRFTISRDNAKNTVYLQMNSLKPEDTAVYYCAAEVWFYSWYFWYYDGEDYWGQGTQVTVSS | high polyreactivity
QVQLVESGGGLVQAGGILRLSWAASGFTFDSNAMGWYRQAPGKERELVASISSSGSTNYADCVKGRFTISRDNAKNTVDFQMNSLKPEDTAVYSCAAESRYPFIYEYWGQGTEVTVSS | low polyreactivity
QVQLVESGGGLVQAGGILRLTCAASGSIFGTYAMGWYRTPPGKERELVSAITRRSGRTYYADSVKGRFTISRDNAKNTVNLQMNCLKQEDTAVYYCAKRPVIDDDYWGQGTQETVSS | high polyreactivity
QVQLVESGGGLVQAGGILRVSCAASGSTFRRYAMGWSRQAPGKERELVAAIRQRGTSTYYADSVKGRFTISRDNAKNTVYLQMNSLKPEDTAVYYCAAGPSLWLFNSWGQGTQVTVSS | high polyreactivity
QVQLVESGGGLVQAGGILSLSCAASGIISIYYVMGWYRQAPGKERELVAAITSSGARTYYADSVKGRFTISRDNAKNTVYLQMNSLKPEDTAVYYCAAKAVHLAGYDYWGQGTQVTVSS | high polyreactivity
QVQLVESGGGLVQAGGILSLSCAASGRIFVYYMGWYRQAPGKESELVAAISFGGGSTYYADSVKGRFTISRDNAKNTVYLQMNSLKPEDTAVYYCNADGDDLDWNYYLVQYDSWGQGTQVTVSS | low polyreactivity
QVQLVESGGGLVQAGGNLRLSCASSGIIFFKYAMGWYRPEPGKERELVAAITSGGSTYYADSVKWRFTISRDNAKKTVYLQMNSLKPEDTAVYYCAAAGGRFIRYCYWGQGTQVTVSS | high polyreactivity
QVQLVESGGGLVQAGGPLRLSCAASGRIVWNAMGWYRQAPGKEREFVASITWSVGSTYYADSVKGRFTISRDNAKNTVYLQMNSLKPEDTAVYYCAADSYSGYYYWGQGTQVTVSS | high polyreactivity
QVQLVESGGGLVQAGGRHRLTCAASGRTVGRYAMGWYRQAPGKEREFVAAISNRVGRTYYADSVKGRFTISRDNAKNTVYLQMNSLKPEDTAVYYCAADTAHVNVNYWGQGTQVTVSS | high polyreactivity
QVQLVESGGGLVQAGGRLRFSCAASGNTFPHNTMGWYRKAPGKERELVSTNYADSVKGRFTISRDNAKNSVYLQMNSLKPEDTAVYYCHADGTFEYDYWGQGTQVTVSS | low polyreactivity
QVQLVESGGGLVQAGGRLRISCAASGSIFKGYARGWSRQAPGKERELVAAISGSGTSTYYADSVKGRFTISRDNAKNTVYLQMNSLKPEDTAVYYCATGWYTVFSSRMYSWGQGTQVTVSS | high polyreactivity
